In publication PMC9585074:

Target: human myc-tagged essential myosin light chain (ELC) (human) (UniProt P08590)
Experiment: co-IP; human myc-tagged ELC overexpressed in HEK293 cells, Myc-Trap magnetic beads, 1 mg lysate over night at 4 °C, immunoblot for endogenous kinases; basal or ionophore (ionomycin 1-5 µM, 4 mM CaCl2, 10 min) stimulation

UniProt P08590, sequence (P08590 whole entry): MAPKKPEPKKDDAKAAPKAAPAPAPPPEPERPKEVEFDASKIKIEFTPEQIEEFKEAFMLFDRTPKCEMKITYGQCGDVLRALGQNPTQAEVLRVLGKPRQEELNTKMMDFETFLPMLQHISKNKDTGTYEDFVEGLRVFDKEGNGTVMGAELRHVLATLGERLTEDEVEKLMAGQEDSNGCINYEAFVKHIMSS

averaged intensity of precipitated NEK9 normalized to actin of input, before doubling the ionophore concentration: 0.35
averaged intensity of precipitated NEK9 normalized to actin of input, doubled ionophore concentration: 1.01
B1: NIMA-related kinase 9 (NEK9), human, endogenous in HEK293 cells (enzyme)
chain: MSVLGEYERHCDSINSDFGSESGGCGDSSPGPSASQGPRAGGGAAEQEELHYIPIRVLGRGAFGEATLYRRTEDDSLVVWKEVDLTRLSEKERRDALNEIVILALLQHDNIIAYYNHFMDNTTLLIELEYCNGGNLYDKILRQKDKLFEEEMVVWYLFQIVSAVSCIHKAGILHRDIKTLNIFLTKANLIKLGDYGLAKKLNSEYSMAETLVGTPYYMSPELCQGVKYNFKSDIWAVGCVIFELLTLKRTFDATNPLNLCVKIVQGIRAMEVDSSQYSLELIQMVHSCLDQDPEQRPTADELLDRPLLRKRRREMEEKVTLLNAPTKRPRSSTVTEAPIAVVTSRTSEVYVWGGGKSTPQKLDVIKSGCSARQVCAGNTHFAVVTVEKELYTWVNMQGGTKLHGQLGHGDKASYRQPKHVEKLQGKAIRQVSCGDDFTVCVTDEGQLYAFGSDYYGCMGVDKVAGPEVLEPMQLNFFLSNPVEQVSCGDNHVVVLTRNKEVYSWGCGEYGRLGLDSEEDYYTPQKVDVPKALIIVAVQCGCDGTFLLTQSGKVLACGLNEFNKLGLNQCMSGIINHEAYHEVPYTTSFTLAKQLSFYKIRTIAPGKTHTAAIDERGRLLTFGCNKCGQLGVGNYKKRLGINLLGGPLGGKQVIRVSCGDEFTIAATDDNHIFAWGNGGNGRLAMTPTERPHGSDICTSWPRPIFGSLHHVPDLSCRGWHTILIVEKVLNSKTIRSNSSGLSIGTVFQSSSPGGGGGGGGGEEEDSQQESETPDPSGGFRGTMEADRGMEGLISPTEAMGNSNGASSSCPGWLRKELENAEFIPMPDSPSPLSAAFSESEKDTLPYEELQGLKVASEAPLEHKPQVEASSPRLNPAVTCAGKGTPLTPPACACSSLQVEVERLQGLVLKCLAEQQKLQQENLQIFTQLQKLNKKLEGGQQVGMHSKGTQTAKEEMEMDPKPDLDSDSWCLLGTDSCRPSL
